In US10844127:
Read-outs that look alike come from different tables or passages of the source.

How the values were obtained:
Experiment in all cases: cell-based or functional assay
[1] = molecular target: human EGFR, full length (human) (UniProt P00533)
[2] = molecular target: human HER3 (ErbB-3) on BxPC-3 cells (human) (UniProt P21860)
[3] = molecular target: human EGFR, full length (human) (UniProt P00533); remark: listed apart in the source
[4] = molecular target: human HER3 (ErbB-3) on BxPC-3 cells (human) (UniProt P21860); remark: listed apart in the source

IC50 for BxPC-3 ligand-driven cell proliferation inhibition (pM) [1]: 260 pM
IC50 for BxPC-3 ligand-driven cell proliferation inhibition (pM) [2]: 260 pM
IC50 for BxPC-3 ligand-driven cell proliferation inhibition (pM) [3]: 287 pM
IC50 for BxPC-3 ligand-driven cell proliferation inhibition (pM) [4]: 287 pM
B1: MEHD7945A (antibody, INN chains, looked up, V domains shown)
VH: EVQLVESGGGLVQPGGSLRLSCAASGFTLSGDWIHWVRQAPGKGLEWVGEISAAGGYTDYADSVKGRFTISADTSKNTAYLQMNSLRAEDTAVYYCARESRVSFEAAMDYWGQGTLVTVSS
VL: DIQMTQSPSSLSASVGDRVTITCRASQNIATDVAWYQQKPGKAPKLLIYSASFLYSGVPSRFSGSGSGTDFTLTISSLQPEDFATYYCQQSEPEPYTFGQGTKVEIK
